Measurements taken from patent publication US20170088610A1 (RINAT NEUROSCIENCE, published 2017).
Like-named read-outs stand apart in the source and are kept apart here.

Key:
rat nerve growth factor [1] = biological target: T1, rat nerve growth factor (rat, UniProt P25427 122-241); experiment: cell-based or functional assay
[2] = biological target: T2, human nerve growth factor (human, UniProt P01138 122-241); experiment: cell-based or functional assay
[3] = biological target: T2, human nerve growth factor; experiment: BIAcore SPR, purified Fab over immobilised human NGF (100 RU); purified Fab E3, 100 RU NGF on chip
Description: (§1) Affinities of anti-NGF Fabs and monoclonal antibodies were determined using the BIAcore3000™ surface plasmon resonance (SPR) system (BIAcore, INC, Piscaway N.J.). CM5 chips were activated with N-ethyl-N′-(3-dimethylaminopropyl)-carbodiinide hydrochloride (EDC) and N-hydroxysuccinimide (NETS) according to the supplier's instructions. Human NGF was diluted into 10 mM sodium acetate pH 4.0 and injected over the activated chip at a concentration of 0.005 mg/mL. Using variable flow time across the individual chip channels, two ranges of antigen density were achieved: 100-200 response units (RU) for detailed kinetic studies and 500-600 RU for screening assays. The chip was blocked with ethanolamine. […] HBS-EP buffer (0.01M HEPES, pH 7.4, 0.15 NaCl, 3 mM EDTA, 0.005% Surfactant […]) was used as running buffer for all the BIAcore assays.
(§2) Briefly, several concentrations of antibodies (Fabs) were injected for 2 minutes onto a CM5 chip with 100 RU of immobilized human NGF on it, and permitted to dissociate for 1800 seconds. […] Data was analyzed using BIAevaluation software following the manufacturer's instructions.

[4] = biological target: T2, human nerve growth factor; experiment: BIAcore SPR, Fab over immobilised human NGF (100 RU)
Description: as §1, §2

[5] = biological target: T2, human nerve growth factor; experiment: BIAcore SPR screen, Fab over immobilised human NGF; KD calculated from koff with kon 4e4 M-1s-1
Description: (§3) A screening BIAcore assay was optimized to determine the affinity of Fab clones from libraries. Supernatants of small culture lysates were injected at […] for 2 min. Dissociation times of 10 to 15 minutes were used for determination of a single exponential dissociation rate (koff) using BIAevaluation software. […] Clones showing improved (slower) koff values were expressed at large scale and full kinetic parameters, kₒₙ and koff, were determined on purified protein.

[6] = biological target: T2, human nerve growth factor; experiment: cell-based or functional assay; remark: listed apart in the source
[7] = biological target: T2, human nerve growth factor; experiment: BIAcore SPR, Fabs over immobilised human NGF
Description: as §1, §2

rat nerve growth factor [8] = biological target: T1, rat nerve growth factor; experiment: cell-based or functional assay; remark: listed apart in the source
[9] = biological target: T2, human nerve growth factor; experiment: BIAcore SPR screen, Fab over immobilised human NGF
Description: as §3

T2 sequence (P01138 122-241 limits assumed): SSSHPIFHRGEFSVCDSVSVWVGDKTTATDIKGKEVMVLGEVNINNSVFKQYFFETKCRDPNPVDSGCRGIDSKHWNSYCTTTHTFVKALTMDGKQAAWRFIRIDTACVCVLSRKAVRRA
T1 sequence (P25427 122-241 limits assumed): as the sequence (P01138 122-241 limits assumed) above, with S3T, I6V, R9M, M37T, D60A, D65E, M92T, G94D, V117A, A120G counted along it

B1: antibody E3 (Fab) (Fab, V domains shown)
VH: QVQLQESGPGLVKPSETLSLTCTVSGFSLIGYDLNWIRQPPGKGLEWIGIIWGDGTTDYNSAVKSRVTISKDTSKNQFSLKLSSVTAADTAVYYCARGGYWYATSYYFDYWGQGTLVTVS
VL: DIQMTQSPSSLSASVGDRVTITCRASQSISNNLNWYQQKPGKAPKLLIYYTSRFHSGVPSRFSGSGSGTDFTFTISSLQPEDIATYYCQQEHTLPYTFGQGTKLEIKR
notes: Fab with human IgG2 CH1 and human kappa constant domain; His tag at the heavy chain C terminus in the E. coli format; also called Fab E3; 3E Fab
Rat nerve growth factor [1]
  IC50, rat NGF-dependent survival of mouse E13.5 trigeminal neurons (1.5 pM NGF): < 1.3 pM
  IC50, rat NGF-dependent survival of mouse E13.5 trigeminal neurons (15 pM NGF): < 8.3 pM
[2]
  IC50, human NGF-dependent survival of mouse E13.5 trigeminal neurons (1.5 pM NGF): < 1.2 pM
  IC50, human NGF-dependent survival of mouse E13.5 trigeminal neurons (15 pM NGF): < 21 pM
[3]
  koff: ~4.2e-05 s⁻¹
[4]
  Kd: ≤ 0.07 nM
  koff: < 4e-05 s⁻¹
  kon: 600000 M⁻¹ s⁻¹
[5]
  Kd: 0.3 nM
[6]
  IC50 (read off the curve), NGF-dependent survival of E13.5 mouse trigeminal neurons (0.4 ng/ml human NGF, 48 h): ~0.02 nM binding sites
[7]
  fold higher binding affinity than parent mouse antibody 911: ~50 fold
Rat nerve growth factor [8]
  IC50, rat NGF-dependent survival of mouse E13.5 trigeminal neurons (15 pM NGF): ~31.6 pM
[9]
  koff: 1.2e-05 s⁻¹
